B1: MAGEA6 (parent)
chain: KISGGPRISYPLLHEWALREGEE
B2: ZNF8 (parent)
chain: VHVIGVEEPSVGASMLFDIREST

Variants of: B1
Assay: protein stability index of a GFP-peptide fusion (GPS, HEK-293T) (PSI 1-6); higher = more stable
Conditions: c terminus: native
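Also: lentivirally expressed fusions sorted by FACS into six bins by GFP to DsRed ratio, PSI derived from sequencing read proportions per bin multiplied by bin number.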

Protein stability index: each site, then its substitutions
G5: T 3.04, F 2.74, C 3.47, H 1.73, K 2.48, Y 3.51, D 2.6, A 2.31
I2: P 3.29, D 4, W 2.41, C 2.55
I8: P 2.24, G 3.28, A 1.95, Q 2.06, M 2, C 2.79, Y 2.6
R7: I 4.03, G 2.84, P 2.65, L 1.92
G21: Y 2.4, K 3.31, D 4.14, C 3.26
L12: H 2.3, T 2.23, G 5.59, F 3.78, A 4.05
E22: T 2.36, F 2.75, G 2.18, S 2.12, C 1.88, L 2.44, P 1.85, H 2.49, Y 2.29, D 3.35, N 2.53, I 2.37, W 1.87, Q 3.01, R 3.04, V 1.06, M 2.19, A 2.4
P6: R 3.64, I 3.5, T 2.8, S 2.73, C 2.05, K 1.55, A 2.25, N 3.51, G 1.91
E15: I 2.14, N 2.31, K 3.16, G 3.53
A17: E 3.55, P 1.02, N 3.69, D 1.28, C 3.28
E20: T 2.92, K 3.74, L 3.74, V 3.06, W 2.32, P 2.36, N 2.34, S 4.57
H14: P 3.11, S 3.4, V 3.6
P11: L 2.3, S 2.66, I 2.41, E 3.27, R 3.25, Q 2.63, H 2.24, V 2.1, M 2.61
S3: W 2.02, T 1.81, M 2.63
S9: L 3.34, F 1.61, C 3.18
Y10: K 3.2, Q 3.78, L 3.04, H 2.83
E23: Y 2.56, K 2.88, R 1.88, T 2.25, P 1.89, H 2.73, A 1.23, Q 2.48, I 1.74, G 2.41, M 2.17, W 1.94, L 2.27, F 2.43, N 2.73, C 1.64, D 3.38
L18: W 2.78, Q 1.63, K 2.72, E 3.11, S 2.31, T 2.04, N 2.16, I 2.98
W16: F 2.74, N 2.54, C 2.94, S 2.33, L 4.59, H 2.26, Y 4.84, T 1.89, P 2.49
L13: N 2.95, Y 1.19, W 3.38, M 1.77, Q 2.27
R19: G 2.67, F 2.64, E 2.29, N 1.43, A 2.07, C 2.87, T 3.74, P 2.18, L 3.32, D 2.96, H 3.42, K 2.08
G4: I 3.06, C 3.34, W 2.78, V 1.61, P 5.66, T 4.54, S 5.95

Variants of: B2
Assay: as above
Conditions: c terminus: native

Protein stability index of substitutions, site by site:
P9: K 2.31, V 1.44, W 3.09, Q 2.17, N 2.27, L 2.23, A 2.65, F 2.45, S 1.73
E8: M 1.95, C 3.48, G 2.18, L 2.75, K 2.11, R 1.89, A 2.25, V 2.45
V1: D 3.96, T 3.92, I 2, S 3.97, H 3.78, P 3.77, C 1.93, F 1.82, A 3.67, Q 3.88
E21: T 2.01, F 2.77, H 1.95, G 2.42, N 2.08
V11: K 2.27, Q 2.1, R 1.9, H 2.42, Y 1.92, P 2.65, S 2.33, I 1.91, F 2.17, W 1.44, A 2.38
V3: H 3.02, N 3.89, R 2.81, L 1.88, C 2.74, A 3.18, P 3.49
S22: K 2.3, T 2.35, P 2.42, Y 1.59, W 1.36, D 2.62, E 2.58, L 1.68
S10: E 2.25, W 1.68, L 1.84, V 2.16, T 2.24, A 2.58, C 1.85
E7: I 1.7, W 3.4, V 2.84, G 1.94, P 2.2, N 1.88
D18: M 2.02, F 2.25, W 2.19, G 1.65, C 2.4, P 1.84, R 1.59, A 1.69
G12: H 2.1, C 1.78, K 1.9, L 1.52, Y 2.95, V 1.7, Q 1.88, M 1.71, W 2.88, T 1.56
L16: N 3.6, C 2.19, Y 2.31, H 2.71, F 1.58, Q 2.87, I 2.06
I19: W 1.51, M 2.33, G 2.72, R 2.7, L 2.04
S14: P 2.63, H 1.95, D 2.62, Q 2.12, K 2, T 2.26, Y 2.78, W 3.13, G 1.92, F 2.28, L 2.31
I4: Q 3.47, H 2.62, K 3.18, W 1.94, V 2.54, R 2.9
R20: D 2.96, Y 1.81, T 2.4, G 2.37, M 1.79, L 1.55, A 1.64, P 2.48
T23: E 2.37, K 2.22, M 2.14, G 2.12, D 2.37, F 1.61, I 1.69
A13: L 2.41, G 2.74, E 2.61, H 1.95, Y 1.66, Q 1.98, V 1.87
M15: F 1.62, P 2.78, H 2.4, D 2.93, N 2.75, K 3.24, Q 2.75, I 2.59, R 2.47, T 2.3
G5: M 2.84, D 3.11, L 3.04, I 2.51, Q 1.66, F 2.47
H2: S 2.81, F 1.97, G 3.35, E 3.35, I 2.56, R 2.09
F17: P 3.77, I 1.74, W 2.28, V 2.21, A 3.44, D 3.79
V6: T 2.33, R 2.35, L 2.25, Q 2.64, I 1.75, W 1.76, A 2.52, M 1.76, S 2.75, G 2.54
